T1: gD-GPI CD248 transiently expressed on cells (UniProt Q9HCU0 18-687, glycosylphosphatidylinositol (GPI) lipid anchor)
T1 sequence: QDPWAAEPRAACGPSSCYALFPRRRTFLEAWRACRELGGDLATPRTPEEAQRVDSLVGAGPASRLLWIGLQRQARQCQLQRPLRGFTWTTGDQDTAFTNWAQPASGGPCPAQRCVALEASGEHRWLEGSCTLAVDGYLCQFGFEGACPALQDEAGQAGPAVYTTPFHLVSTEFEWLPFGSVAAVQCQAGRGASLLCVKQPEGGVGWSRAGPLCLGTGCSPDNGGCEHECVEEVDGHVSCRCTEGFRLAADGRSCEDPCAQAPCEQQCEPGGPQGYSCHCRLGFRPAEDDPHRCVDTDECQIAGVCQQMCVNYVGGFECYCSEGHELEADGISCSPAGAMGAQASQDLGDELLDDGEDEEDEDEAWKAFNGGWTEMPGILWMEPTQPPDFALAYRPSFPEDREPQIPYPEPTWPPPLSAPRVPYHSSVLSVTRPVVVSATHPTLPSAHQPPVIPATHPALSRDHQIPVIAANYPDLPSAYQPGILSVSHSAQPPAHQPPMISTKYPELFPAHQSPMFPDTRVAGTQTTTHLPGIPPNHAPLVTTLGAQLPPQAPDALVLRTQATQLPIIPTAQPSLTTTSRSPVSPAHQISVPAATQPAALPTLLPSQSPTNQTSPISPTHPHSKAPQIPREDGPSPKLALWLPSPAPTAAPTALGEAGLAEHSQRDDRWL

T2: full-length CD248 transiently expressed on cells (UniProt Q9HCU0 18-757)
T2 sequence: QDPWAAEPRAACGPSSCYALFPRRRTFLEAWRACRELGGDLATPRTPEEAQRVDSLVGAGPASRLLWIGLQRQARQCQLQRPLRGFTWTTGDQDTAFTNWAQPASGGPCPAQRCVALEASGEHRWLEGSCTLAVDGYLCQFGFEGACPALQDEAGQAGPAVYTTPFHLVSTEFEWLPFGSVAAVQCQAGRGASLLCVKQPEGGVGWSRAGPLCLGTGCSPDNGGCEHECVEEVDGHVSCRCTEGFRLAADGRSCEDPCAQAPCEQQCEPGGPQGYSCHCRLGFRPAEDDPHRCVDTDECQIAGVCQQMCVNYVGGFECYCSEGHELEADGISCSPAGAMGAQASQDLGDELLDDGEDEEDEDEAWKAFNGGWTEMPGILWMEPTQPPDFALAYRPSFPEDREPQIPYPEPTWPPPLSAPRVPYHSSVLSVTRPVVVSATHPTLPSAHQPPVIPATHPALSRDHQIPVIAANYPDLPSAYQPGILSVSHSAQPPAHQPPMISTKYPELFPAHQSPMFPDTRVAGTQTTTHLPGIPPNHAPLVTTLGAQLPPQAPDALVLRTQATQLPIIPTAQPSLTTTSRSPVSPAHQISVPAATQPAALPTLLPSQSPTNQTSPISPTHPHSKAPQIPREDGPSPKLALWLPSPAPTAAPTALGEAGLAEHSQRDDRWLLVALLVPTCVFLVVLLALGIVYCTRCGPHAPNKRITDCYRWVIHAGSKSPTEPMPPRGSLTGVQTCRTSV

B1: full-length LRRC15 displayed on rEVs (receptor)
chain: YHGCPSECTCSRASQVECTGARIVAVPTPLPWNAMSLQILNTHITELNESPFLNISALIALRIEKNELSRITPGAFRNLGSLRYLSLANNKLQVLPIGLFQGLDSLESLLLSSNQLLQIQPAHFSQCSNLKELQLHGNHLEYIPDGAFDHLVGLTKLNLGKNSLTHISPRVFQHLGNLQVLRLYENRLTDIPMGTFDGLVNLQELALQQNQIGLLSPGLFHNNHNLQRLYLSNNHISQLPPSVFMQLPQLNRLTLFGNSLKELSPGIFGPMPNLRELWLYDNHISSLPDNVFSNLRQLQVLILSRNQISFISPGAFNGLTELRELSLHTNALQDLDGNVFRMLANLQNISLQNNRLRQLPGNIFANVNGLMAIQLQNNQLENLPLGIFDHLGKLCELRLYDNPWRCDSDILPLRNWLLLNQPRLGTDTVPVCFSPANVRGQSLIIINVNVAVPSVHVPEVPSYPETPWYPDTPSYPDTTSVSSTTELTSPVEDYTDLTTIQVTDDRSVWGMTQAQSGLAIAAIVIGIVALACSLAACVGCCCCKKRSQAVLMQMKAPNEC
B2: gD-GPI–tagged LRRC15 ectodomain displayed on rEVs (domain or fragment)
chain: YHGCPSECTCSRASQVECTGARIVAVPTPLPWNAMSLQILNTHITELNESPFLNISALIALRIEKNELSRITPGAFRNLGSLRYLSLANNKLQVLPIGLFQGLDSLESLLLSSNQLLQIQPAHFSQCSNLKELQLHGNHLEYIPDGAFDHLVGLTKLNLGKNSLTHISPRVFQHLGNLQVLRLYENRLTDIPMGTFDGLVNLQELALQQNQIGLLSPGLFHNNHNLQRLYLSNNHISQLPPSVFMQLPQLNRLTLFGNSLKELSPGIFGPMPNLRELWLYDNHISSLPDNVFSNLRQLQVLILSRNQISFISPGAFNGLTELRELSLHTNALQDLDGNVFRMLANLQNISLQNNRLRQLPGNIFANVNGLMAIQLQNNQLENLPLGIFDHLGKLCELRLYDNPWRCDSDILPLRNWLLLNQPRLGTDTVPVCFSPANVRGQSLIIINVNVAVPSVHVPEVPSYPETPWYPDTPSYPDTTSVSSTTELTSPVEDYTDLTTIQVTDDRSVWGMTQAQSG
modifications: glycosylphosphatidylinositol (GPI) lipid anchor

How the values were obtained:
Test in all cases: fluorescence microscopy of rEV binding to transfected cells
[1] = molecular target: gD-GPI CD248 transiently expressed on cells (UniProt Q9HCU0)
[2] = molecular target: T1, gD-GPI CD248 transiently expressed on …
[3] = molecular target: T2, full-length CD248 transiently expressed …

Molecule	fold binding over cells transfected with an empty vector control [1] [fold]	fold binding over cells transfected with an empty vector control [2] [fold]	fold binding over cells transfected with an empty vector control [3] [fold]
gD-GPI–tagged LRRC15 ectodomain displayed on rEVs (from UniProt Q8TF66 22-538) (domain or fragment)	> 10	–	–
B1	–	> 10	> 10
B2	–	–	> 10

From publication PMC8488672 (Proceedings of the National Academy of Sciences of the …, 2021)
